In paper PMC9513677, “Systematic multi‐level analysis of an organelle proteome reveals new peroxisomal functions” (Molecular Systems Biology, 2022):
Primed or numbered codes have the meaning given here. Where no end group is shown, it is not given here. FITC′ = fluorescein isothiocyanate

Molecular target: T1, Full‐length Saccharomyces cerevisiae Pex5 (purified, for fluorescence anisotropy) (Saccharomyces cerevisiae, UniProt P35056 1-612)
T1 construct: Pex5, peroxisomal targeting factor (PTS1 receptor), Saccharomyces cerevisiae, full length; also called purified yeast Pex5; source: expressed in autoinduction medium, purified (Ni‐NTA, TEV digestion, second Ni‐NTA, gel filtration Superdex 200)
T1 sequence (looked up): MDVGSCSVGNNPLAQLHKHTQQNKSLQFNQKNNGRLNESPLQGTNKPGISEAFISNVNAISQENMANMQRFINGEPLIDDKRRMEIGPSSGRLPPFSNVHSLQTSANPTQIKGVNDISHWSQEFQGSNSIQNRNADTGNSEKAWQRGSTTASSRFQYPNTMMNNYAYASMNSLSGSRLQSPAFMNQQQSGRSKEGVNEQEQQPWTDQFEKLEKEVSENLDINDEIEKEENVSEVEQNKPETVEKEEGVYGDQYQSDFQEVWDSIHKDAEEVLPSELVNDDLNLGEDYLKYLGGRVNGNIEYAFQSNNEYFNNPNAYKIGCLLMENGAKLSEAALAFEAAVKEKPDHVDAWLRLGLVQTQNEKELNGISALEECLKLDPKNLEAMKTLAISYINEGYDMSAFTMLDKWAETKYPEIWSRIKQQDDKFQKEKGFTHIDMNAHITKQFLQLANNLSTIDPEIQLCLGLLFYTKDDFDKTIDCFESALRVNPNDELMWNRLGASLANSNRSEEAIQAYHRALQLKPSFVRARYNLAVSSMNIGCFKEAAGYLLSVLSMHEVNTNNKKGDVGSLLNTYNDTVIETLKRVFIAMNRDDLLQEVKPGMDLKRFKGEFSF
Assay: fluorescence polarisation; fluorescence anisotropy; FITC peptide at 10 nM, Pex5 in serial dilution; 50 mM Hepes pH 7.5, 150 mM NaCl; black 96-well plates, excitation/detection 470/530 nm; three independent experiments; binding-saturation model with one binding site
Details: both partners purified

B1: FITC-labeled peptide of the carboxyl‐terminal 10 amino acids of Yhl045w (Pxp3) (peptide)
peptide: {FITC′}-RKRVLGVAYL
notes: Yhl045w (Pxp3, Peroxisomal protein 3), Saccharomyces cerevisiae, the carboxyl-terminal 10 amino acids; also called Pxp3 motif; Pxp3 targeting peptide; source: synthetic peptide (Genscript)
With B1 the Kd was 9.5 ± 2.9 µM.

B2: FITC-labeled peptide of the carboxyl terminus of Idp3 (known PTS1 motif) (peptide)
peptide: {FITC′}-YEDKKGMCKL
notes: tyrosine added at the N terminal of the Idp3 peptide for concentration determination; not part of Idp3; Idp3, Saccharomyces cerevisiae, carboxyl terminus with the PTS1 motif; also called PTS1 motif from Idp3; source: synthetic peptide (Genscript)
B2 was tested, and the Kd was 5.5 ± 0.5 µM.
